Source: article PMC9896144, “A “grappling hook” interaction connects self-assembly and chaperone activity of Nucleophosmin 1” (PNAS Nexus, 2023)
Where “and” joins values, the source holds several entries; their conditions need not be identical. Equal values may be shown once.

B1: NPM1_(120), the N-terminal pentamerization domain (NTD) of NPM1 (domain or fragment, human, UniProt P06748 1-120, looked up)
chain: MEDSMDMDMSPLRPQNYLFGCELKADKDYHFKVDNDENEHQLSLRTVSLGAGAKDELHIVEAEAMNYEGSPIKVTLATLKMSVQPTVSLGGFEITPPVVLRLKCGSGPVHISGQHLVAVE
notes: Nucleophosmin 1, human, NTD with the A1 tract, residues 1 to 120; exact construct and tags are in the supplementary methods; also called NPM120; isolated NTD; source: produced by the authors
B2: NPM1_(188), the NTD and the acidic regions of the IDR of NPM1 (domain or fragment, human, UniProt P06748 1-188, looked up)
chain: MEDSMDMDMSPLRPQNYLFGCELKADKDYHFKVDNDENEHQLSLRTVSLGAGAKDELHIVEAEAMNYEGSPIKVTLATLKMSVQPTVSLGGFEITPPVVLRLKCGSGPVHISGQHLVAVEEDAESEDEEEEDVKLLSISGKRSAPGGGSKVPQKKVKLAADEDDDDDDEEDDDEDDDDDDFDDEEAEE
notes: Nucleophosmin 1, human, NTD and acidic tracts A1-3, C-terminally truncated at residue 188; exact construct and tags are in the supplementary methods; Mostly pentameric; also called NPM188; source: produced by the authors
B3: NPM1AML, NPM1 variant with an AML mutation at the C-terminus (natural protein, human, UniProt P06748 1-294, looked up)
chain: MEDSMDMDMSPLRPQNYLFGCELKADKDYHFKVDNDENEHQLSLRTVSLGAGAKDELHIVEAEAMNYEGSPIKVTLATLKMSVQPTVSLGGFEITPPVVLRLKCGSGPVHISGQHLVAVEEDAESEDEEEEDVKLLSISGKRSAPGGGSKVPQKKVKLAADEDDDDDDEEDDDEDDDDDDFDDEEAEEKAPVKKSIRDTPAKNAQKSNQNGKDSKPSSTPRSKGQESFKKQEKTPKTPKGPSSVEDIKAKMQASIEKGGSLPKVEAKFINYVKNCFRMTDQEAIQDLCLAVEEVSLRK
notes: Compared directly with FL NPM1, so most likely the whole protein with the changed C-terminus; also called AML variant; source: purified by the authors
B4: rpL5_(21-37), residues 21 to 37 of ribosomal protein L5 (peptide, UniProt P46777 21-37, looked up)
peptide: RRRREGKTDYYARKRLV
notes: ribosomal protein L5 (rpL5), residues 21 to 37, with two basic motifs; printed mass 2.2 kDa; also called rpL5 peptide; rpL5_(12-37)

Columns and labels:
[1] = biological target: NPM1_(ΔIDR), NPM1 variant in which NTD and CTD are linked without the IDR (human) (UniProt P06748); assay: native MS; each NPM1 variant alone; nESI with collision-induced dissociation, collision voltages 25 to 75 V
[2] = biological target: the molecule itself; assay: native MS; NPM1_120 or FL NPM1 in the presence of the rpL5_21-37 peptide; collisional activation
[3] = biological target: the molecule itself; assay: native MS; each NPM1 variant alone; nESI with collision-induced dissociation, collision voltages 25 to 75 V
[4] = biological target: T1, Full-length (FL) Nucleophosmin 1 (human, UniProt P06748 1-294); assay: native MS; NPM1_120 or FL NPM1 in the presence of the rpL5_21-37 peptide; collisional activation; conditions: both partners purified
T1 construct: Forms pentamers that assemble into large oligomers without defined stoichiometry; PDB 8AS5 models only the N-terminal core; also called NPM1; FL NPM1; source: produced by the authors

[5] = biological target: B1; assay: as above; conditions: both partners purified

Molecule: NPM1_(ΔIDR), NPM1 variant in which NTD and CTD are linked without the IDR (from UniProt P06748 1-120; P06748 240-294)
- stoichiometry N [1]: 5 and 10

Molecule: B1
- stoichiometry N [2]: ≥ 25 subunits
- stoichiometry N [3]: 10

Molecule: B2
- stoichiometry N [3]: 5 and 10

Molecule: B3
- binding result [3]: binds

Molecule: B4
- binding result [4]: binds
- binding result [5]: binds
